# Results as given in the RNAGym collection of RNA variant scans (doi:10.1073/pnas.2313332121).
# B1: TPR t1 (parent)
# chain: GACCAAUCUGCCCUCAGAGCUCGAGAACAUCUUCGGAUGCAGAGGAGGCAGGCUUCGGUGGCGCGAUAGCGCCAACGUCCUCAACCUCCAAUGCAUCCCACCACAUGAUGAUGCCUGAAGAGCCUUGGUUUUUUG
# Variants of: B1
# Assay: polymerase ribozyme fitness, log enrichment relative to wild type (log ratio); higher = more active; in vitro selection for triplet polymerase activity
# Outline: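 PCR was used to build mutant libraries for each subunit of a heterodimeric triplet polymerase ribozyme, which were then transcribed. A single in vitro selection round, in triplicate, used a frozen incubation at −7 °C and recovered extended constructs by gel excision, streptavidin beads and RT-PCR. Fitness is the logarithm of genotype enrichment relative to wild-type enrichment, averaged over replicates with inverse-variance weights. The logarithm is base 2, and after Illumina sequencing only genotypes with ≥10 input reads and ≥1 read per output were kept.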
row,Variant,polymerase ribozyme fitness (log ratio)
1,G61A G107A,-3.6
2,G60U C79G C114U,-4.12
3,G61A C101A U116A G128C,-6.04
4,G60U U130C,0.326
5,G57U G63A C89G,-3.98
6,G60U A100C,-1.26
7,U59C A84G,-1.4
8,G58C G63C,-2.61
9,G61A G128C,-1.93
10,G57U G61C U92C,-2.88
11,U59G C70U C101A,-2.5
12,G57C C70U,-0.607
13,G58C G71C C115A A118U,-1.75
14,G60A C88G G113A,-2.28
15,G61A C79A,-2.09
16,G61A A75U U96G A121G U129C G135U,0.938
17,G61C C85U,-1.81
18,G58A U125G,-0.683
19,G60A C99U G127A,-4.87
20,G61A G113C G128U,-4.09
21,G60C G61C,-1.72

row,Variant,polymerase ribozyme fitness (log ratio)
1,U59G C85U C115A,-0.695
2,G61A A100C,-0.823
3,G60U U112G U116C,-1.99
4,G61A U78G C123A U133A,0.482
5,U59G C104A A105U G110A,-5.5
6,G60A A66U,-1.29
7,U59C U106G U112G,-2.31
8,G60C U96A C101A A119U,-4.66
9,U59C C124A,2.03
10,G60A G120C,0.892
11,G57C C62U G135U,-1.15
12,G60U C94A,-0.596
13,G61A G77A A95U,-1.47
14,G57U C72G C115A U132C G135C,-4.51
15,G57U C101G U106A G122A,-0.938
16,G57U C123U,0.41
17,U59C U129C,-1.12
18,G60C A83C C115U,-1.05
19,G58C C82G U87G G93C C123A,-0.69
20,G60A A121C,1.29
21,G60C A103U,-5.01

row,Variant,polymerase ribozyme fitness (log ratio)
1,U59G U130G,-0.605
2,G61A A111C,-0.072
3,G57U G71C,-3.42
4,G60U C85A A103U A111C,-4.74
5,G60U G120A C124A,1.48
6,U59A G63A,-1.13
7,G57U C62U U67C U87G C101G G113C,-6.27
8,G58C U133A,0.072
9,G60C C86U U106G G120A,-2.2
10,G58A U96C,-0.271
11,G58U C104U A105U G110A C124U U133G,-7.29
12,G57U U132C,0.0378
13,G58U G61C A90G,0.258
14,U59A G63C C82A G127A,-2.72
15,G57C C62A G122A,-3.31
16,G61A C102U,-1.04
17,U59A C70U U125A U133A,-1.97
18,G57U G110U,-1.8
19,G61A G77A C89U U126A,-2.77
20,G58C C101G C114A,-3.77
21,G57U C94G U112G,-4.47

row,Variant,polymerase ribozyme fitness (log ratio)
1,G60A C79U U96A C115U C123G U132A,-1.19
2,G58C C73G C80U C102A G113A,-5.77
3,G58A A84U U133A,-0.154
4,G57C G63A A100U U112C U125C,-0.23
5,G60A C82A A95G,0.0608
6,G61A U112C U129A,1.39
7,G60A C88U G120A G122U,0.196
8,G61A C64U,-1.86
9,G60U A74U G110U G127A,-4.43
10,G60U G93U A108G G120U,-3.22
11,G61C A83U G113C G120U U132A,-4.78
12,G58U G60A U87A A103U,-5.31
13,G57C G135U,-0.876
14,G61A C80A,-3.47
15,G61A U87C,-0.201
16,G60C C124U G135A,2.05
17,G57A U78G C82G,-0.698
18,G61A C88G C98G C123G,-6.3
19,G60U G61C,-1.45
20,U59A G93U,-0.878
21,G57C G110U G120U,-4.33
